The values that follow come from a protein production outcome set (Wang et al. 2014).
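Also: failed if final PepcDB status was selected cloned or expressed and not failed if soluble or beyond.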

A short description of the data set: label from the status in PepcDB records.
As to “MACTVDFRCLDEGFGGKTYKRKRESQEQAAAEAIADEASMDIDGAPPAAKRSAVASSENPDKPIALAVERPTYDGVIAGKVSGRNWKQPRTHRSSGRFVKNRKPDLEEMKRQREIKKAYKERVNELKEEIRSNKVEKRKKKEEREKRKKENVLRTGTKLQKITNPKTLKKISMSKKQRKQLKKIPDEMLSGGSKKSITN”, the protein production entry was “not failed”.
The entry for “MTEQHSHQFERGTDGPKVILVGVDGSDSSLHAAAYAAGLARRQHALLAVVYVQPVMAAGAALGVPVADTTDEIAADLVQYIRDATERVKDIFEVRWEFHTFRGDPYNGLVTAADELKADAVVVGASEQAGHRIVGSVAVRLVKAGRWPVTVVP” is “not failed”; for “MGNIGSPPKFDEYPNGNEEPRRVLRLNVYFDNPVQNKDGAYDDRGGFWAPVDWWHRDAERWATLFAKGMRVAVRGHLERDDWTDGDGEPHTTYKVDARSVGILPYRLDAVHLSPLEHHHHHH” it is “failed”.
With “MPLPPDITFDSLALIKMHSQNMKRILEVTLAKFTVNLSIVTVYRYLTARAYLKKNIEAEFEILKDIYNIVPLLDDIAIKAAQIEANLIKKEITLDMEDIITATTAIYTNSLLVTDDPKRYEPIRRFGLDTMPLDKFIKEVELMVEKELI”, the protein production result is recorded as “not failed”.
In the case of “MSLKEFKIGWFATILGTGGVAIASLPYFPVLSVVLTYLLTAIFVILTAVWLAKIIRYPRVVAAELGHFVMGNFYPLQPISAVILAILYRKLGIPLDLPLLAYGAGLILVLTVYLSYHFFANVKAEIHHIHGGWFIPPVSTILVTDALLQYSPNETFFVTSLIYFGIGLMLFLFISTILFLRLVNHELPVFELAPTNFILLAPIGILIVDFTLIAKHAEAIFSANLVPLALIASISLWGFGLWALAVNILLLLRYLRQEMPFFLGWWSYVFPTAAYTLSTIALSHFVPVFSYAATALYAFLIAAWAIIGVRTVGIAIRGA”, the protein production entry was “failed”.
As for “MEKVLTDLDRVNIAKQEYELGSQLDTLVKIMSQDKVLPIGKVAHVQDGGKETGEQIYTITPNGTLDKPEDVKEVTVLFKGSTAPFGGDDWKTDWFKNDIPIASKLLLKKFGSQSVSHKQGTKQLEQSAHLLKEVMNKYPNAKISVYGHSLGSMNAQYAIAELDDNQIYRVQGAWIYNGPNLYSILTDKQKEQVDKIKGVVNNYVDSKDKIGIGYPKEGSDNAVGIVKIVDSKAVSGGSWVANFTNQHIWGGYQYNPDGSLKLAEDKFAYKENYSVVHTNVNQRMHAIKAKLSSFKSTGKEVSKNQAIFLDSQQAKVISSGLVTISKEAVEEVKKVEQKAVAKAEELYQSLKVAPTGVTELSPQELEEAYAQSGVSYASIVGEAQTFFSNKTQAAESISHAYVELENQINKGVEAMLRQDSNLSGEFKQWH”, the protein production result was “failed”.
Turning to “TMLRVRSRDGLERVSVDGPHITVSQLKTLIQDQLQIPIHNQTLSTNRNLLLAKSPSDFLAFTDMADPNLRISSLNLAHGSMVYLAYEGERTIRG”, the protein production entry is “not failed”.
Regarding “AIANSLVRRSAQQLSLWRTYCIKHNASEAASPGRNAGRPNYEEFIGRHQRQAQCSIVVQVSSEKSYEELYNYCSSFGSIMGAHHYCVRQDETLHYILLEYATSDEAAAAIGAGVTNGELSGVPVRSPFLWFRAAGGGRRSPKLVANTAPALLSLDGTRQVDQRHLLGLLRGAADIEEQVQQLYEHTRLNELGIRMRFLAALQVQQAIAGMFPAAQAQPFGSSVNGFGRMGCDLDLILRFDSDMGAKIPLEAAVPSRLVYHTKENLSNGRSQTQRHMECFGDMLHLFLPGVCHVRRILQARVPIIKYHHEHLDLEVDLSMSNLTGFYMSELLYMFGEMDPRVRPLTFTIRRWAQTCGLTNPSPGRWISNFSLTCLVMFFLQQLRQPILPTIGALAKAAEPGDSRVTEDGINCTFTRNVDRLGFRSRNQSSLSELLLQFFEFYSQFDFHNRAISLNEGKPLSKPDHSAMYIVNPLEQLLNVSKNVSLEECERLRIEVRNAAWVLESEVENASVPEGDGQELSCGLLNLFKHPEKAVIRPNMFFKPRMVEVSDLFEQKEAGATSSSTPPTPAITYKSASVRQQVQSIKAATRSELKQLRGSGSSVPTSSPNNRRRS”, the protein production result was “failed”.
The entry for “VFGVKEWECEVLSNKNVSTFIKEFVVKLPEGETMNFKSGSYAQIKIPKYNIRYADYDIQDRFRGDWDKMDAWSLTCKNEEETVRAYSMANYPAEGNIITLNVRIATPPFDRAANKWKAGIKPGISSSYIFSLKPGDKVMMSGPYGDFHIQDTDAEMLYIGGGAGMAPLRAQILHLFRTLKTGRKVSYWYGARSKNEIFYEEDFREIEREFPNFKFHIALSDPQPEDNWTGYVGFIHQVIYDNYLKDHDAPEDIEYYMCGPGPMANAVKGMLENLGVPRNMLFFDDFG” is “not failed”; for “LRQSQQMLQLVMDTIPHSVFWKDRNSVFLGCNRNFAIMVGYEHPENLIGKTDYDFLPDPRNADLYRQCDARIIETNNPEYHIIEPMLAPDGQQIWLETNKVPLHDPEGNVVGVLGTFEDITERKQVQEA” it is “failed”.
As to “KKPLSVFKGPLLHISPAEELYFGSIESGEKKTLIVLTNVTKNIVAFKVRTTAPEKYRVKPSNSSCDPGASIDIIVSPHGGLTVSAQDRFLIMAAEMEQSSGTGPAELSQFWKEVPRNKVMEHRLRCHTVESSKPNSLML”, the protein production result is given as “not failed”.
For “MCAFNGAALTALGISHSALLAHSPQGCEYLVNNAFASQECDYMETMTLCTKLCVDEIVHGGEDILARTIREVKDLPISALFVLSACGPEIVGDDIVGVCEALQPEVKFRLVPIESAGFRGSQYDGIDIAMDTILKKLVKDDVEKIPGSVCLEHHHHHH”, the protein production result was “failed”.
With “MNMIRRLTALTLSLMLAGGPALAQTVVIVRHGEKVSPNGDPDLSDAGKARAQALAAALAGARVSTVLATPLKRTQQTAQPTADAAGLVIRTIALDGGVPAHAQRVAEVARQAPKDATVLIVGHSNTVGEIARALGDAAPSPVTDCDYDQMTIISLDAPTARTLHARYGAPTLPCPTN”, the protein production result was “failed”.
“MKIIAFGASTSSTSINKALATFTANLVDGAQVQVLNINDYSVPMFSEDLEKEIGQAEGAQAFLRDLAQADAFVISFAEHNGHYPAAYKNLFDWATRINRALFGDKPAVYLSTSPGPGGAKSVLAAATASAPFFGGNVKASVSVPSFYDNFDLEQGVVTKPEIVAELKAAVAKLSA”: the protein production entry is listed as “failed”.
As to “MIDDMAVPLTFTDAAANKVKSLISEEENTDLKLRVYITGGGCSGFQYGFTFDEKVNDGDLTIEKSGVQLVIDPMSLQYLIGGTVDYTEGLEGSRFTVNNPNATSTCGCGSSFSI”, the protein production result is given as “not failed”.
Turning to “MSSRTVLAPGNDRNSDTHGTLGSGRSSDKGPSWSSRSLGARCRNSIASCPEEQPHVGNYRLLRTIGKGNFAKVKLARHILTGREVAIKIIDKTQLNPSSLQKLFREVRIMKGLNHPNIVKLFEVIETEKTLYLVMEYASAGEVFDYLVSHGRMKEKEARAKFRQIVSAVHYCHQKNIVHRDLKAENLLLDAEANIKIADFGFSNEFTLGSKLDTFCGSPPYAAPELFQGKKYDGPEVDIWSLGVILYTLVSGSLPFDGHNLKELRERVLRGKYRVPFYMSTDCESILRRFLVLNPAKRCTLEQIMKDKWINIGYEGEELKPYTEPEEDFGDTKRIEVMVGMGYTREEIKESLTSQKYNEVTATYLLLGRKTEEGGDRGAPGLALARVRAP”, the protein production entry was “failed”.
Regarding “MSFVPSLPNLGRFWTAANALSLCRLALVVPITVFLWRDGPLGWLLGLVILVILTDWFDGRIARWTHSVSDWGKVIDPVADKFAAIMTVTALTFRPADPHLPLWFFGLVVGRDVAILLGGMAIARRSGQIVMSAWAGKAASLWLALTILSVILRADPPVFRVCLWMATGLFVFSFLLYVVRYLQATRNAEGATPDSVPQGP”, the protein production result is recorded as “failed”.
Turning to “MSLCRWAAYHGTPIFLEDVISRPGHSLIAQSAHAEECKTATNGDGFGVAWYDARPEPGLYRDVYPAWSDPNLRAVAHHVRSGLFLSHVRASTGSCISRNNCHPFAARRWCFMHNGQVGGFEAFRKQADMAIADEFYTYRKGSTDSEVLFLLALSEGLEHDPHGALARAIARLEGLSRAHGTTPHMRLSAAFSDGQTLYAARYSSDHIAPSVYYRYSHARQGWAVVSEPLETDEGDWTELRPGRMLTIGAEGAAERDFAPADLGRAAEGHHHHHH”, the protein production entry is recorded as “not failed”.
As to “MTETDKKQEQENHAECEDKPKPCCVCKPEKEERDTCILFNGQDSEKCKEFIEKYKECMKGYGFEVPSAN”, the protein production result is given as “not failed”.
Turning to “MATRRLTDAFLLLRNNSIQNRQLLAEQVSSHITSSPLHSRSIAALADDRMALVSGISLDPEAAIGVTKRPPPKWVDGVDEIQYDVGRIKQKMKELASLHDKHLNRPTLDDSSEEEHAIEITTQEITQLFHRCQRAVQALPSRARACSEQEGRLLGNVVASLAQALQELSTSFRHAQSGYLKRMKNREERSQHFFDTSVPLMDDGDDNTLYHRGFTEDQLVLVEQNTLMVEEREREIRQIVQSISDLNEIFRDLGAMIVEQGTVLDRIDYNVEQSCIKTEDGLKQLHKAEQYQKKNRKMLVILILFVIIIVLIVVLVGVKSR”, the protein production entry is on record as “failed”.
Consider “MNRTMSSINVLSLPVFNRDASGYDALRRGLIPCFDAFYGTALDLIDDWRDAEKLRVLDLGAGTGLFTAMLLTRHPDAQIHLIDASEKMLEQARKRFDGNPAITYAVADMANTELGGPWDLIISALAIHHLEDIGKKHLFGEIRGALSEGGLFVNVEQVLGHDPEVEARYARTWLQQVRRLGVAEVEIAKAHERMSHDRCSPLENQLQWMRDTGFCEIDCSFKAWRFAVLSGRR”, for which the protein production entry is “failed”.
Regarding “MELPEKPQLYLITPPEFELSSFPDVLARVLDTHKVACVRLELAARDEDTVSRAADALREVTHARDIALVLSDHSVLADRLGLDGVHLSDAARSVRETRKLLGEDAIIGSFCGTSRHDGMSAGEAGADYICFGPVAASSLGDGSYVAQEVFEWWSEFIEVPVVAEGGLDAARIAQLTPFTDFFAFGQEVWSAEYPAQRLGELLEAMG”, the protein production entry is “failed”.
“QKGWFPASHVKLLGPSSERATPAFHPVCQVIAMYDYAANNEDELSFSKGQLINVMNKDDPDWWQGEINGVTGLFPSNYVKMTTDS”: the protein production entry is reported as “not failed”.
For “MVHTPLNFKFSEKREEWNLRFCRNVGVSIVELVTADASSAYVRGLMAVNGSKVYSILPFISIDAEKAKKAKFPEDRMSGVRGKVIPSVLPEIKGETILDIGCGFGTLTMELAKNNPESQVYGIDLHDSLTGQAEMNAEVLGLPNVEFRTGSAYALPFEKDSIDAVTCFLMLHHLEDIKFALFEIKRVLKKGGSLTAVEPLAHQHHHGPQLSEAEWKELFEEAGFGTETENMEGAVVLRAVKRELEHHHHHH”, the protein production result is given as “failed”.
In the case of “MSSLILSTFAERLTELGQRTTFLELPPYLDRSFPNSNSGKVVQVGKYLPPEVKHKAVDLLREYKDV”, the protein production entry is on record as “failed”.
Turning to “RHDFSDQTAMLELFSQLFGPYPFDQYSVVVTEDDLEIPLEAQGLSIFGANHAGGTKQWERLIAHELAHQWFGNSLGLAQWDDIWLNEGFACYAE”, the protein production entry was “failed”.
“MAKKVAVLAVNPVNGCGLFQYLEAFFENGISYKVFAVSDTKEIKTNSGMVLIVDDVIANLKGHEDEFDALVFSCGDAVPVFQQYANQPYNVDLMEVIKTFGEKGKMMIGHCAGAMMFDFTGITKGKKVAVHPLAKPAIQNGIATDEKSEIDGNFFTAQDENTIWTMLPKVIEALKLEHHHHHH”: the protein production result is “not failed”.
“HSIVAITDNRGVITHVNEKFCDISQYEYYELVGTTHKIINSGFHPRSFFKQMWKTIAQGNIWKGEICNRTKQGKLYWVDTTIVPLKDND”: the protein production entry is recorded as “failed”.
